Measured values reported in publication PMC9751785, “Characterization and Identification of a novel chromosome-encoded metallo-β-lactamase WUS-1 in Myroides albus P34” (Frontiers in Microbiology, 2022).

Key:
WUS-1 = target: T1, WUS-1 (Myroides albus, UniProt A0A6I3LH21, K23R); assay: spectrophotometric imipenem hydrolysis, inhibition; type: biochemical
T1 construct: gene bla; mature domain, signal peptide removed (predicted cleavage between 19 and 20, Ala/Gln); pCold I in E. coli BL21, His-tag cut with thrombin; zinc enzyme

[1] = system: CO[C@@]1(NC(=O)Cc2cccs2)C(=O)N2C(C(=O)O)=C(COC(N)=O)CS[C@@H]21; assay: continuous spectrophotometric hydrolysis assay, Michaelis-Menten fit; type: biochemical, Myroides albus; conditions: 10 mM phosphate pH 7.4, 50 μM ZnCl2, 30 °C, SD within 15%
From the text: (§1) continuous spectrophotometric hydrolysis assay, Michaelis-Menten fit on WUS-1

[2] = system: CC1(C)S[C@@H]2[C@H](NC(=O)[C@H](N)c3ccccc3)C(=O)N2[C@H]1C(=O)O; assay: as above; type: biochemical, Myroides albus; conditions: 10 mM phosphate pH 7.4, 50 μM ZnCl2, 30 °C, SD within 15%
From the text: as §1

[3] = system: Cc1nnc(SCC2=C(C(=O)O)N3C(=O)[C@@H](NC(=O)Cn4cnnn4)[C@H]3SC2)s1; assay: as above; type: biochemical, Myroides albus; conditions: 10 mM phosphate pH 7.4, 50 μM ZnCl2, 30 °C, SD within 15%
From the text: as §1

[4] = system: CC1(C)S[C@@H]2[C@H](NC(=O)[C@H](C(=O)O)c3ccsc3)C(=O)N2[C@H]1C(=O)O; assay: as above; type: biochemical, Myroides albus; conditions: 10 mM phosphate pH 7.4, 50 μM ZnCl2, 30 °C, SD within 15%
From the text: as §1

[5] = system: C[C@@H](O)[C@H]1C(=O)N2C(C(=O)O)=C(S[C@@H]3CN[C@H](C(=O)N(C)C)C3)[C@H](C)[C@H]12; assay: as above; type: biochemical, Myroides albus; conditions: 10 mM phosphate pH 7.4, 50 μM ZnCl2, 30 °C, SD within 15%
From the text: as §1

[6] = system: C[C@@H](O)[C@H]1C(=O)N2C(C(=O)O)=C(SCCN=CN)C[C@H]12; assay: as above; type: biochemical, Myroides albus; conditions: 10 mM phosphate pH 7.4, 50 μM ZnCl2, 30 °C, SD within 15%
From the text: as §1

[7] = system: CC1(C)S[C@@H]2[C@H](NC(=O)C(C(=O)O)c3ccccc3)C(=O)N2[C@H]1C(=O)O; assay: as above; type: biochemical, Myroides albus; conditions: 10 mM phosphate pH 7.4, 50 μM ZnCl2, 30 °C, SD within 15%
From the text: as §1

T1 sequence (A0A6I3LH21 entry or part of it K23R): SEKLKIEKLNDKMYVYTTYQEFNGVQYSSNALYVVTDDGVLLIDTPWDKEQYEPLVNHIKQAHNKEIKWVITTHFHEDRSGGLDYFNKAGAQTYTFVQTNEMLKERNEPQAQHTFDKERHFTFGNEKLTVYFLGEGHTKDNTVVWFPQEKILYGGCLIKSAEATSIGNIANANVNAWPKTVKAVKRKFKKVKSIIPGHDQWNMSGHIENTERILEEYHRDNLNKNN

Compound: O=C(O)CN(CCN(CC(=O)O)CC(=O)O)CC(=O)O [EDTA]
- IC50 (WUS-1): 71.3 µM

Compound: WUS-1 (Myroides albus; K23R)
- Km [1]: 44.33 µM
- kcat [1]: 14.2 s⁻¹
- kcat/Km [1]: 320000 M⁻¹ s⁻¹
- Km [2]: 290.2 µM
- kcat [2]: 2920 s⁻¹
- kcat/Km [2]: 1.01e+07 M⁻¹ s⁻¹
- Km [3]: 59.86 µM
- kcat [3]: 33.9 s⁻¹
- kcat/Km [3]: 570000 M⁻¹ s⁻¹
- Km [4]: 827.4 µM
- kcat [4]: 703 s⁻¹
- kcat/Km [4]: 850000 M⁻¹ s⁻¹
- Km [5]: 147.4 µM
- kcat [5]: 477 s⁻¹
- kcat/Km [5]: 3.24e+06 M⁻¹ s⁻¹
- Km [6]: 334.8 µM
- kcat [6]: 1340 s⁻¹
- kcat/Km [6]: 3.99e+06 M⁻¹ s⁻¹
- Km [7]: 581 µM
- kcat [7]: 1120 s⁻¹
- kcat/Km [7]: 1.93e+06 M⁻¹ s⁻¹
